A short description of data set [1]: Purity analysis of ophthalmic preparations by HPLC. Format: physicochemical. To be noted: after preparation, HPLC UV 205 nm. How it is done: The purity changes of the ophthalmic preparations prepared in the above Examples and Comparative Examples were analyzed during the period from the initial time after preparation to 12 months later with a high performance liquid chromatography (HPLC), Agilent 1200 instrument under the conditions in Tables 1 and 2, and the results are shown in Table 3.

The nature of data set [2]: Impurity analysis (single maximum impurity, thymosin β4 sulfoxide) by HPLC and LC/MS. Format: physicochemical. To be noted: after preparation; impurity identified as thymosin β4 sulfoxide. How it is done: The amounts of impurities in the ophthalmic preparations prepared in the above Examples and Comparative Examples were analyzed as following, and the results are shown in Table 3.
Specifically, thymosin β4 sulfoxide was synthesized following the methods in the paper (Eur. J. Biochem. 223, 345-350 (1994), Nature Medicine 5(12), 1424 (1999)). Thymosin β4 sulfoxide is a substance modified from thymosin β4 by oxidation, which causes a change in its pharmacological activity compared to thymosin β4.
The molecular weight of the synthesized thymosin β4 sulfoxide was identified by mass analysis (LC/MS) using the MALDI-TOF MS instrument. The analyzed molecular weight was 4,978.5, which was consistent with the value in the document of 4,980±2.
The ophthalmic preparations prepared in Example 1 and Comparative Examples 1 and 2 and the synthesized thymosin β4 sulfoxide were analyzed by HPLC and LC/MS under the same conditions.

Regarding “thymosin β4 acetate [Thymosin β4 (raw material)]”, in data set [1], the “Purity (%)” value turned out to be 99.3%. For the same substance, the “Single maximum impurity (%)” value in data set [2] is “Not detected”.

The values above are taken from US10744088B2, “Method for preparing ophthalmic preparation containing thymosin beta-4” (G-TREEBNT CO., LTD., priority 2015, dated 2020).
